According to patent US20090285803A1 (published 2009):

T1: Nogo Receptor (human, UniProt Q9BZR6 27-447)
T1 construct: whole, on cells; also called NgR; NgR1
T1 sequence (looked up): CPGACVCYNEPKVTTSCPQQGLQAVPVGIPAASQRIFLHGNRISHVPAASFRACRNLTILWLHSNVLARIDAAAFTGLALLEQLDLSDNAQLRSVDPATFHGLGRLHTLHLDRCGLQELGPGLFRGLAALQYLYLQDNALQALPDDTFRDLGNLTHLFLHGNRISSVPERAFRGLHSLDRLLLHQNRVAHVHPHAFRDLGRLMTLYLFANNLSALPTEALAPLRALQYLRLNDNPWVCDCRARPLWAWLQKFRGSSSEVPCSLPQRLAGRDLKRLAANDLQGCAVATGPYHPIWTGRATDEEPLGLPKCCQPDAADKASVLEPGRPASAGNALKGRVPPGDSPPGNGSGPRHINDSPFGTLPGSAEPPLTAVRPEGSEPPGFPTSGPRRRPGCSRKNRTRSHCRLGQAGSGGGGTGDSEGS

B1: AP-Nogo66 (ligand, UniProt Q9NQC3 1055-1120, looked up)
chain: RIYKGVIQAIQKSDEGHPFRAYLESEVAISEELVQKYSNSALGHVNCTIKELRRLFLVDDLVDSLK
notes: Produced in conditioned medium of 293 cells; also called Alkaline Phosphatase-Nogo66 fusion; not shown: Alkaline Phosphatase (AP)

How the values were obtained:
AP-Nogo66 = target: B1; test: expression cloning; AP-fusion bait (20-50 nM) on transfected COS7 cells, chromogenic AP staining
Source text: (§1) To identify novel receptors for inhibitory myelin proteins, an expression cloning approach was taken. As bait, constructs were generated that fused Alkaline Phosphatase (AP) to the N- and/or C-terminus of the following characterized myelin inhibitors (human cDNA used): Nogo66, two additional inhibitory domains of NogoA (NiRD2 and NiG20) (Oertle T, J Neurosci. 2003, 23(13): 5393-406), MAG, and OMgp. These constructs were transfected into 293 cells to produce conditioned medium (in DMEM/2% FBS) containing the bait proteins. The cDNA library used in the screen was comprised of full-length human cDNA clones in expression-ready vectors generated by Origene. These cDNAs were compiled, arrayed, and pooled. Pools of approximately 100 cDNA's were transiently transfected into COS7 cells.
(§2) In particular, on Day 1, COS7 cells were plated at a density of 85, 000 cells per well in 12-well plates. On Day 2, 1 mg of pooled cDNA's were transfected per well using the lipid-based transfection reagent FuGENE 6 (Roche). On Day 4, screening was performed. […] The cells were washed once in AP Buffer (100 mM NaCl, 5 mM MgCl₂, 100 mM Tris pH 9.5), and incubated in chromogenic substrate (Western Blue, Promega), and analyzed for presence of reaction product one hour after incubation, and again after overnight incubation. […]

Nogo Receptor = target: T1, Nogo Receptor; test: as above
Source text: as §1, §2

binding result (AP-Nogo66)	binding result (Nogo Receptor)	Binder
binds		Homo sapiens leukocyte immunoglobulin-like receptor, subfamily B (with TM and ITIM domains), member 2 (LILRB2) (receptor, Full-length human cDNA clone expressed in COS7 cells; also called MIG10; ILT4) QTGTIPKPTLWAEPDSVITQGSPVTLSCQGSLEAQEYRLYREKKSASWITRIRPELVKNGQFHIPSITWEHTGRYGCQYYSRARWSELSDPLVLVMTGAYPKPTLSAQPSPVVTSGGRVTLQCESQVAFGGFILCKEGEDEHPQCLNSQPHARGSSRAIFSVGPVSPNRRWSHRCYGYDLNSPYVWSSPSDLLELLVPGVSKKPSLSVQPGPVVAPGESLTLQCVSDVGYDRFVLYKEGERDLRQLPGRQPQAGLSQANFTLGPVSRSYGGQYRCYGAYNLSSEWSAPSDPLDILITGQIHGTPFISVQPGPTVASGENVTLLCQSWRQFHTFLLTKAGAADAPLRLRSIHEYPKYQAEFPMSPVTSAHAGTYRCYGSLNSDPYLLSHPSEPLELVVSGPSMGSSPPPTGPISTPAGPEDQPLTPTGSDPQSGLGRHLGVVIGILVAVVLLLLLLLLLFLILRHRRQGKHWTSTQRKADFQHPAGAVGPEPTDRGLQWRSSPAADAQEENLYAAVKDTQPEDGVEMDTRAAASEAPQDVTYAQLHSLTLRRKATEPPPSQEREPPAEPSIYATLAIH
	binds	B1
